Measurements reported in the Human Domainome abundance scans (Beltran et al. 2025).

B1: Zinc finger MYM-type protein 6, residues 427 to 504; numbered along this chain, O95789 (parent)
chain: KLKCQHCNHLFATKPELLFYKGKMFLFCGKNCSDEYKKKNKVVAMCDYCKLQKIIKETVRFSGVDKPFCSEVCKFLSA

Variants of: B1
Test: abundance fitness (aPCA) (normalised: wild type 0, dead -1); higher = more abundant; growth selection in yeast, the domain comes from the species named
Details: Homo sapiens

Abundance fitness, by site and new letter:
E35: C -0.402 | A -0.024 | Y -0.108 | M -0.054 | V -0.07 | W -0.11 | G -0.007 | P -0.331 | D -0.047 | Q -0.082 | L -0.096 | T -0.127 | R -0.021
K56: W -0.16 | H -0.113 | E -0.49 | V -0.071 | L -0.382 | C -0.658 | G -0.192 | P 0.182 | R -0.423 | S -0.411 | M 0.511 | Q -0.044
V43: L -0.7 | E -0.064 | A -0.423 | D -0.271 | R -0.224 | G -0.224 | W -0.416 | K 0.542 | N 0.239 | H -0.763 | M 0.55
T58: E -0.277 | H 0.511 | A -0.585 | G -0.125 | D 0.779
K53: S -0.431 | G -0.148 | V -0.127 | C 0.367 | F 0.088 | P -0.154 | W -0.313 | A -0.126 | L -0.351 | E -0.353 | R -0.308 | M -0.189
S33: C -0.077 | R -0.061 | G -0.141 | V -0.054 | Q 0.017 | E -0.025 | P -0.343 | W -0.114 | L -0.089 | M -0.042 | Y -0.14 | D -0.217 | A -0.032 | F -0.289 | T -0.127 | H -0.192
C49: A -0.604 | V -1.07 | G -0.54 | S -0.489 | K -0.433 | E -0.64 | Q 0.123 | W -1.05 | T -0.54 | M -0.677 | R -0.242 | D -0.718
D47: E -0.125 | T -0.041 | S 0.311 | V -0.58 | L 0.177 | N -0.327 | I -0.306 | A -0.033 | W 0.424 | Q -0.106 | H 0.26 | C -0.16 | R -0.394
E57: D 0.002 | Q -0.289 | T 0.026 | M 0.605 | A -0.129 | G -0.163 | C 0.163 | R -0.181 | L -0.711 | S -0.388 | V -0.059 | H 0.272
K37: V -0.029 | M -0.214 | Q 0.051 | C -0.074 | N 0.097 | D -0.057 | A 0.004 | W -0.099 | P -0.114 | S -0.068 | R -0.046 | T -0.099 | L -0.134 | G -0.027
K38: W -0.136 | P -0.163 | A 0.023 | M -0.063 | E -0.014 | G -0.026 | V -0.018 | L -0.088 | S -0.027 | D -0.114 | Q -0.053 | T -0.014
K39: C -0.163 | L -0.107 | A 0.029 | E -0.012 | Y 0.024 | H -0.078 | R -0.004 | M -0.087 | V -0.023 | G 0.005 | P -0.055 | S 0.003 | Q -0.043 | W -0.099 | T -0.058
C46: A -0.479 | T -0.311 | S -0.703 | V -0.308 | K 0.241 | R -0.331 | W 0.056 | I 0.329 | G -0.629 | M -0.159 | E -0.674 | D -0.531 | P -0.248
Y48: W -0.276 | K -0.496 | T -0.014 | R -0.043 | M -0.65 | S -0.52 | G -0.174 | V -0.677 | C 0.426 | H 0.537 | Q 0.059 | E -0.861 | N -0.184 | L -0.496 | P -0.801 | A -0.557
Q52: V 0.173 | L -0.128 | E 0.446 | M 0.234 | W -0.483 | A -0.485 | P 0.108 | K 0.51 | C -0.576 | R 0.061 | T 0.181
A44: G -0.132 | Q 0.054 | K 0.117 | P -0.604 | W -0.558 | S -0.282 | V -0.319 | Y -1.28 | R -0.495 | T -0.629 | E -0.112 | M 0.39
N31: G -0.026 | P -0.018 | L -0.067 | E -0.058 | R 0.012 | F -0.229 | S -0.042 | V -0.077 | C -0.1 | Y -0.134 | H 0.062 | W -0.054 | Q -0.036
N40: C -0.135 | V -0.03 | P -0.172 | T -0.014 | K -0.105 | R -0.045 | D 0.019 | G -0.086 | L -0.191 | H -0.104 | E -0.071 | S 0.049 | A -0.02 | Y -0.24
D34: V -0.017 | L -0.14 | R -0.068 | T -0.133 | M -0.091 | W -0.156 | Q -0.034 | G -0.078 | E -0.033 | N -0.527 | A -0.037 | P -0.691 | S -0.056
L51: D 0.345 | S 0.567 | R 0.509 | Q 0.529 | M 0.805 | G 0.484 | I 0.022 | H 0.513 | W -0.806 | T 0.551 | C 0.49 | K 0.414 | V -0.119 | A 0.187
C32: G -1.02 | Q -0.944 | E -1.01 | L -1.05 | P -1.05 | V -0.919 | W -0.861 | S -1.01 | D -0.607 | T -1.29
I54: M 0.623 | P 0.442 | L 0.128 | N 0.189 | W -0.079 | T 0.104 | R 0.157 | C 0.675 | S 0.174 | K 0.356 | G 0.238 | A 0.557 | Q 0.52 | V 0.131
I55: E 0.197 | S 0.305 | V 0.32 | P 0.281 | A 0.243 | R -0.055 | Q -0.185 | L -0.774 | M 0.211 | H 0.164 | K -0.138 | T 0.161 | G 0.16 | W -0.623
M45: A 0.039 | W -0.842 | P -0.328 | G -0.502 | S -0.073 | R -0.062 | E -0.051 | Y 0.35 | C -0.407 | L -0.671 | K -0.237 | V -0.145 | H -0.345
Y36: W -0.042 | H -0.005 | N -0.172 | T -0.169 | L -0.181 | K -0.661 | M -0.093 | V -0.15 | D -0.453 | G -0.183 | C -0.187 | R -0.26 | A -0.074 | Q -0.13
K50: V -0.96 | L -0.722 | D -0.767 | Y -0.48 | E -0.363 | M -0.685 | W -0.709 | R -0.172 | H -0.427 | A -0.786 | T -0.687 | C -0.805 | N -0.23 | G -0.228 | S -0.422 | Q 0.164
